Test results: PMC3967765 (Archives of biochemistry and biophysics, 2014)

Assays:
[1] = biological target: T1, huCOX-2 (human cyclooxygenase-2) (Homo sapiens, UniProt P35354, N580A); conditions: oxygen electrode
T1 sequence (P35354 18-604 N580A): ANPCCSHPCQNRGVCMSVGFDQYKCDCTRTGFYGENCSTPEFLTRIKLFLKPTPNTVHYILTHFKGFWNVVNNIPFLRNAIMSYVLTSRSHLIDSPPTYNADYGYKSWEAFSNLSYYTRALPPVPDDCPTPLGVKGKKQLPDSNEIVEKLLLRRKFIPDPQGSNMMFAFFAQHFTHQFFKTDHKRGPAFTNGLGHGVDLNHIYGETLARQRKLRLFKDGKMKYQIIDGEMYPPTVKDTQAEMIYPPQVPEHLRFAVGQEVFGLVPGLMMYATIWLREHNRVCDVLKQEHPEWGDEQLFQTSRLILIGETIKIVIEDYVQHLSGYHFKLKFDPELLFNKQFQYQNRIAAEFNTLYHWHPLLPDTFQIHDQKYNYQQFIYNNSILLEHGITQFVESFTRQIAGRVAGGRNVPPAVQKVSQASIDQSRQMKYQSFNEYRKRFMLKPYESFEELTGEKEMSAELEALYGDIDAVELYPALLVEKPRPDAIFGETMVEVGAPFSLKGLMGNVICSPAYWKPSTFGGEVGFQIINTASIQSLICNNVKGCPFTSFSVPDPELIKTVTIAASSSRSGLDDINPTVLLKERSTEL

[2] = biological target: T1, huCOX-2 (human cyclooxygenase-2)
[3] = substrate: CC/C=C\C/C=C\C/C=C\C/C=C\C/C=C\CCCC(=O)O; assay: purified protein; conditions: heme (Fe3+-protoporphyrin IX)
[4] = substrate: CCCCC/C=C\C/C=C\C/C=C\C/C=C\CCCC(=O)OCC(O)CO; assay: purified protein; conditions: heme (Fe3+-protoporphyrin IX)
[5] = substrate: CCCCC/C=C\C/C=C\C/C=C\C/C=C\CCCC(=O)O; assay: purified protein; conditions: heme (Fe3+-protoporphyrin IX)
[6] = biological target: the molecule itself; assay: SEC

For `COc1ccc2cc([C@H](C)C(=O)O)ccc2c1` [Napx, naproxen], the “% loss of activity” value [1] was 60-70 % loss of activity.

`Cc1ccc(Cl)c(Nc2ccccc2C(=O)O)c1Cl` [Meclo, meclofenamic acid] was tested, and the “oxygen electrode, 50 μM inhibitor, 30 min pre-incubation” value [2] was “Flurbiprofen, indomethacin, meclofenamic acid, and celecoxib caused near complete inhibition of cyclooxygenase activity”.

B1: FLAG N580A murine (mu) COX-2 (enzyme, UniProt Q05769 18-604, looked up)
chain: ANPCCSNPCQNRGECMSTGFDQYKCDCTRTGFYGENCTTPEFLTRIKLLLKPTPNTVHYILTHFKGVWNIVNNIPFLRSLIMKYVLTSRSYLIDSPPTYNVHYGYKSWEAFSNLSYYTRALPPVADDCPTPMGVKGNKELPDSKEVLEKVLLRREFIPDPQGSNMMFAFFAQHFTHQFFKTDHKRGPGFTRGLGHGVDLNHIYGETLDRQHKLRLFKDGKLKYQVIGGEVYPPTVKDTQVEMIYPPHIPENLQFAVGQEVFGLVPGLMMYATIWLREHNRVCDILKQEHPEWGDEQLFQTSRLILIGETIKIVIEDYVQHLSGYHFKLKFDPELLFNQQFQYQNRIASEFNTLYHWHPLLPDTFNIEDQEYSFKQFLYNNSILLEHGLTQFVESFTRQIAGRVAGGRNVPIAVQAVAKASIDQSREMKYQSLNEYRKRFSLKPYTSFEELTGEKEMAAELKALYSDIDVMELYPALLVEKPRPDAIFGETMVELGAPFSLKGLMGNPICSPQYWKPSTFGGEVGFKIINTASIQSLICNNVKGCPFTSFNVQDPQPTKTATIAASASHSRLDDINPTVLIKRRSTEL
B1 was tested, and the Km [3] was 1.9 µM, the kcat [3] was 6.3 s⁻¹ and the kcat/Km [3] was 3.3e+06 M⁻¹ s⁻¹. It also gave a Km [4] of 6.8 µM, a kcat [4] of 30.9 ± 0.7 s⁻¹ and a kcat/Km [4] of 4.5e+06 M⁻¹ s⁻¹. It also gave a Km [5] of 6.8 µM, a kcat [5] of 36.1 s⁻¹ and a kcat/Km [5] of 5.3e+06 M⁻¹ s⁻¹. For the same molecule, the “stoichiometry N” value [6] was 2.
